From patent US20220298237A1 (KEIO UNIVERSITY, published 2022)

Key:
[1] = target: T1, oligopeptide ATYPSGHLDM (SEQ ID NO: 1) (human and mouse); test: ELISA on the immunogen peptide (FIG. 2)
T1 construct: Synthetic peptide; positions 148 to 157 of the human AQP3 polypeptide, identical in mouse; also called peptide used for immunization; oligopeptide 5
T1 peptide: ATYPSGHLDM

[2] = target: T2, human aquaporin 3 (AQP3) on cells (human, UniProt Q92482 1-292); test: flow cytometry on HaCaT cells, 10 µg/mL (FIG. 6A)
T2 construct: whole, on cells; Water channel membrane protein; also called human AQP3; AQP3 on HaCaT cells
T2 sequence (looked up): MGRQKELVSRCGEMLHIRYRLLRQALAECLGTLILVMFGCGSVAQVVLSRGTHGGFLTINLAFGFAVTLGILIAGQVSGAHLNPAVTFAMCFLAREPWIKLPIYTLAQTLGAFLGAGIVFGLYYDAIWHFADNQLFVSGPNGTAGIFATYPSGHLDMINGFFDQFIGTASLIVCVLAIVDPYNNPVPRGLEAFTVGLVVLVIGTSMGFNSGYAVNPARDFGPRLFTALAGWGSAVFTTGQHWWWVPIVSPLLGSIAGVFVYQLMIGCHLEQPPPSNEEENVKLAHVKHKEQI
Method: HaCaT cells were treated with Cell Dissociation Buffer for 30 minutes at 37° C., and then dislodged and collected. Then, the cells were reacted with 10 μg/mL anti AQP3 antibody at 4° C. for 1 hour. After washing the cells, a fluorescent-labeled secondary antibody was added and the reaction was allowed to occur additionally for 1 hour (4° C.). Then, by using a flow cytometer, fluorescence intensity was measured (FIG. 6A to FIG. 6C). FIG. 6A represents the result of a case in which antibody G was used, FIG. 6B represents the result of a case in which antibody H was used, and FIG. 6C represents the result of a case in which antibody J was used. […] The histogram expressed with bold line represents a case in which the anti AQP3 antibody was used while the histogram expressed with thin dotted line represents a case as a control in which the anti AQP3 antibody was not used (addition of non-specific IgG). […] Ratio (%) of the cells included in this range (=cells showing positive staining by anti AQP3 antibody) is also shown in the drawing.

[3] = target: T3, mouse aquaporin 3 (AQP3) on cells (mouse, UniProt Q8R2N1 1-292); test: fluorescence binding assay on PAM212 cells, 10 µg/mL (FIG. 5B)
T3 construct: whole, on cells; Water channel membrane protein; also called mouse AQP3; AQP3 on PAM212 cells
T3 sequence (looked up): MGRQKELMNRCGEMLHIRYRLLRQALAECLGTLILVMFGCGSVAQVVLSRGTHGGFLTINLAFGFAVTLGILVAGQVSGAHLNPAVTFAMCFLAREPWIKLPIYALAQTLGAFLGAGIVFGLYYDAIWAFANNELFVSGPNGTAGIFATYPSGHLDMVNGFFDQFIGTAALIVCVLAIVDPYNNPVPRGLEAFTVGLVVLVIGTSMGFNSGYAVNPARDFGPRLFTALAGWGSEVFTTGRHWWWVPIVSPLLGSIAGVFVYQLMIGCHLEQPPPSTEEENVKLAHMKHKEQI
Method: (§1) PAM212 and macrophage cells were reacted with each anti AQP3 antibody (0.1, 1, or 10 μg/mL) at 4° C. for 1 hour. After washing the cells, a fluorescent-labeled secondary antibody was added and the reaction was allowed to occur additionally for 1 hour (4° C.). By measuring the fluorescence intensity, the binding property of each anti AQP3 antibody to cells was obtained.
The assay was also performed using PAM212 cells and antibodies A, B, C, D, E, F, G, H, and J at a concentration of 10 μg/mL. Binding of antibodies C, D, E, G, and J to PAM212 cells was statistically significant.

[4] = target: T4, mouse AQP3 in lysate of HEK293T cells overexpressing mouse AQP3 and a myc-biotinylated tag (mouse, UniProt Q8R2N1 1-292); test: ELISA on lysate of HEK293T cells overexpressing mouse AQP3 (FIG. 3)
T4 construct: Cell lysate used in ELISA; also called AQP3 containing cell lysate; not shown: myc-biotinylated tag
T4 sequence (looked up): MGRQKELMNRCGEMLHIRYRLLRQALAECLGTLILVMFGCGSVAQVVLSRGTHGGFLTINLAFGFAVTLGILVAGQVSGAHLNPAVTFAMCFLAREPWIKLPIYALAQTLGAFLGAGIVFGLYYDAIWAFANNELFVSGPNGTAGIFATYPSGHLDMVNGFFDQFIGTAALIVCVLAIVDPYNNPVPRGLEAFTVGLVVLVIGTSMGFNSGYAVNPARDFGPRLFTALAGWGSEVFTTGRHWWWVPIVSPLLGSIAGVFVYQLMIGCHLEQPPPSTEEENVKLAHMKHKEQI
From the text: Cell lysate from HEK293T cells overexpressing mouse AQP3 and a myc-biotinylated tag was used in an ELISA assay to measure the binding of antibodies A, B, C, D, E, F, G, H, J, and K to AQP3. Cell lysate from HEK293T cells overexpressing the myc-biotinylated tag but not AQP3 was used as control. […] C. Antibody binding to AQP3 expressing cells

[5] = target: T2, human aquaporin 3 (AQP3) on cells; test: fluorescence binding assay on HaCaT cells, 10 µg/mL (FIG. 5C)
[6] = target: T3, mouse aquaporin 3 (AQP3) on cells; test: FACS on HEK293 cells stably overexpressing mouse AQP3, 10 µg/mL
Method: A FACS assay was also performed using HEK293 cells stably overexpressing mouse AQP3. Cells were incubated with antibody E, H, J, or negative control IgG at a concentration of 10 μg/mL for one hour and then sorted by FACS. Separately, HEK293 cells stably overexpressing human AQP3 were incubated with antibody E at a concentration of 10 μg/mL for one hour and then sorted by FACS.

[7] = target: T1, oligopeptide ATYPSGHLDM (SEQ ID NO: 1); test: ELISA on coated peptide
Method: (§2) To determine the important amino acid residues of an epitope in Loop C involved in binding to specific AQP3 antibody clones, peptides of varying lengths were produced. The sequences of these peptides are shown in column 2 of Table 4.
(§3) The various peptides and AQP3 antibody clones were subjected to ELISA binding analyses. […] The microtiter wells (Costar 2690) were coated with 50 μL of each peptide at 4° C. overnight. The wells were washed 3 times with PBS and blocked with 100 μL of 1% BSA/PBS at 37° C. for 1 hour. Each antibody was adjusted to 1 μg/mL in 1% SBA/PBS as above then serially diluted 1:5 in 1% BSA/PBS. The blocker was discarded and the wells were incubated with 50 μL of antibodies at 37° C. for 1.5 hours. The wells were washed 3 times with PBS and mouse antibodies were detected with 50 μL of goat anti-mouse IgG (H+L) HRP conjugate (ThermoFisher 31438) (1:5,000 in 1% BSA/PBS) and rabbit antibodies were detected with 50 μL of goat anti-rabbit IgG (H+L) HRP conjugate (ThermoFisher 31462) (1:5,000 in 1% BSA/PBS) at 37° C. for 1 hour. The wells were washed 3 times with PBS and developed with 50 μL of HRP substrate at RT for 5 min then stopped with 50 μL of 2N sulfuric acid and binding was measured with a plate reader.

[8] = target: T5, oligopeptide SGPNGTAGIFATYPS (SEQ ID NO: 94); test: ELISA on coated peptide
T5 construct: Synthetic peptide, part of Loop C of AQP3
T5 peptide: SGPNGTAGIFATYPS
Method: as §2, §3

[9] = target: T6, oligopeptide TYPSGHLDM (SEQ ID NO: 96); test: ELISA on coated peptide
T6 construct: Synthetic peptide, part of Loop C of AQP3
T6 peptide: TYPSGHLDM
Method: as §2, §3

[10] = target: T7, oligopeptide YPSGHLDM (SEQ ID NO: 97); test: ELISA on coated peptide
T7 construct: Synthetic peptide, part of Loop C of AQP3; first diluted in DMSO
T7 peptide: YPSGHLDM
Method: as §2, §3

[11] = target: T8, oligopeptide PSGHLDM (SEQ ID NO: 98); test: ELISA on coated peptide
T8 construct: Synthetic peptide, part of Loop C of AQP3
T8 peptide: PSGHLDM
Method: as §2, §3

[12] = target: T9, oligopeptide SGHLDM (SEQ ID NO: 99); test: ELISA on coated peptide
T9 construct: Synthetic peptide, part of Loop C of AQP3
T9 peptide: SGHLDM
Method: as §2, §3

[13] = target: T10, oligopeptide GHLDM (SEQ ID NO: 100); test: ELISA on coated peptide
T10 construct: Synthetic peptide, part of Loop C of AQP3
T10 peptide: GHLDM
Method: as §2, §3

[14] = target: T11, oligopeptide ATYPSGHLD (SEQ ID NO: 101); test: ELISA on coated peptide
T11 construct: Synthetic peptide, part of Loop C of AQP3
T11 peptide: ATYPSGHLD
Method: as §2, §3

[15] = target: T12, oligopeptide ATYPSGHL (SEQ ID NO: 102); test: ELISA on coated peptide
T12 construct: Synthetic peptide, part of Loop C of AQP3
T12 peptide: ATYPSGHL
Method: as §2, §3

[16] = target: T13, oligopeptide ATYPSGH (SEQ ID NO: 103); test: ELISA on coated peptide
T13 construct: Synthetic peptide, part of Loop C of AQP3
T13 peptide: ATYPSGH
Method: as §2, §3

[17] = target: T14, oligopeptide ATYPSG (SEQ ID NO: 104); test: ELISA on coated peptide
T14 construct: Synthetic peptide, part of Loop C of AQP3
T14 peptide: ATYPSG
Method: as §2, §3

[18] = target: T15, oligopeptide TAGIFATYPSGHLDM (SEQ ID NO: 105); test: ELISA on coated peptide
T15 construct: Synthetic peptide, part of Loop C of AQP3
T15 peptide: TAGIFATYPSGHLDM
Method: as §2, §3

[19] = target: T16, oligopeptide AGIFATYPSGHLDM (SEQ ID NO: 106); test: ELISA on coated peptide
T16 construct: Synthetic peptide, part of Loop C of AQP3
T16 peptide: AGIFATYPSGHLDM
Method: as §2, §3

[20] = target: T17, oligopeptide GIFATYPSGHLDM (SEQ ID NO: 107); test: ELISA on coated peptide
T17 construct: Synthetic peptide, part of Loop C of AQP3
T17 peptide: GIFATYPSGHLDM
Method: as §2, §3

[21] = target: T18, oligopeptide IFATYPSGHLDM (SEQ ID NO: 108); test: ELISA on coated peptide
T18 construct: Synthetic peptide, part of Loop C of AQP3
T18 peptide: IFATYPSGHLDM
Method: as §2, §3

[22] = target: T19, oligopeptide FATYPSGHLDM (SEQ ID NO: 109); test: ELISA on coated peptide
T19 construct: Synthetic peptide, part of Loop C of AQP3
T19 peptide: FATYPSGHLDM
Method: as §2, §3

[23] = target: T1, oligopeptide ATYPSGHLDM (SEQ ID NO: 1); test: ELISA on peptide SEQ ID NO:1, IgG, 50% binding response (FIG. 16A)
[24] = target: T3, mouse aquaporin 3 (AQP3) on cells; test: fluorescence binding assay on mouse macrophage cells, 0.1, 1 and 10 µg/mL (FIG. 4)
Method: as §1
The testing was also carried out using solvent (Veh) or a non-specific IgG (IgG) controls. In FIG. 4, the vertical axis represents fluorescence intensity, and the mean fluorescence intensity of each sample is represented by bar height together with standard error.

B1: Antibody G (antibody, mouse IgG2a, kappa, V domains shown)
VH: QVQLKQSGAELVRPGASVTLSCKASGYTFTDYEMHWVKQTPVHGLEWIGGIDPETGGTAYNQKFKGKAILTADKSSSTAYMELRSLTSEDSAVYYCTRWGAITSFVALRGFAYWGQGTLVTVSS
VL: DIQMTQSPSSLSVSAGEKVTMSCKSSQSLLNSGNQKNYLAWYQQKPGQPPKLLIYGASTRESGVPDRFTGSGSGTDFTLTISSVQAEDLAVYYCQNDHSYPPTFGAGTKLELKR
notes: also called anti AQP3 antibody G; Antiboy G
binding result [1]: binds
binding result [2]: binds
binding result [3]: binds
binding result [4]: binds

B2: Antibody H (antibody, mouse IgG2a, kappa, V domains shown)
VH: EVKLVESGGDLVKPGGSLKLSCAASGFTFSSYGMSWVRQTPDKRLEWVATISRRSIYTYYPDSVQGRFTISRDNAKNTLYLQMSSLKSEDTAMYYCARLSLYDYDGARYTMDYWGQGTSVTVSS
VL: DIKMTQSPKFMSTSVGDRVSITCKASQDVGTAVAWYQQKPGQSPKLLIYWASTRHTGVPDRFTGSGSGTDFTLTISNVQSEDLADYFCQQYSSYHTFGAGTKLEIKR
notes: also called anti AQP3 antibody H
binding result [1]: binds
binding result [5]: binds
binding result [6]: binds
binding result [4]: binds

B3: Antibody J (antibody, mouse IgG2a, kappa, V domains shown)
VH: QVHLQQSGTELVKPGASVKLSCEASGYTFTSYWMHWVKQRPGQGLEWIGNINPSNGGTNYNEKFKSKATLTVDKSSSTAYMQLSSLTSEDSAVYYCARGGIYYGNYDYYAMDYWGQGTSVTVSS
VL: DIVMTQAAPSVPVTPGESVSISCRSSKSLLHSNGNTYLYWFLQRPGQSPQLLIYRVSNLASGVPDRFSGSGSGTAFTLRISRVEAEDVGVYYCMQHLEYPFTFGGGTKLEIKR
notes: also called anti AQP3 antibody J
binding signal (plate reader) [7]: 0.391
binding signal (plate reader) [8]: 0.043
binding signal (plate reader) [9]: 0.26
binding signal (plate reader) [10]: 0.086
binding signal (plate reader) [11]: 0.095
binding signal (plate reader) [12]: 0.041
binding signal (plate reader) [13]: 0.043
binding signal (plate reader) [14]: 0.671
binding signal (plate reader) [15]: 0.044
binding signal (plate reader) [16]: 0.045
binding signal (plate reader) [17]: 0.044
binding signal (plate reader) [18]: 0.723
binding signal (plate reader) [19]: 0.744
binding signal (plate reader) [20]: 0.523
binding signal (plate reader) [21]: 0.594
binding signal (plate reader) [22]: 0.513
binding result [5]: binds
EC50 [23]: > 1 µg/mL
binding result [4]: binds
binding result [24]: binds
